# Where “and” joins values, the source holds several entries; their conditions need not be identical. Equal values may be shown once.
# Experiments:
# [1] = molecular target: recombinant HIV Gag (Pr55^Gag) (HIV); assay: SPR
# [2] = molecular target: recombinant HIV Gag (Pr55^Gag) (HIV); assay: charge detection mass spectrometry
substance,measurement,setting,value
recombinant HIV Gag (Pr55^Gag) (natural protein),fold strengthening of homodimerization (SPR Kd) with Ca^2+,[1],< 7 fold
same,stoichiometry N,[2],125 mers and 220 mers
